The test system of one assay is liver membranes. The assay can be described thus: Binding activity of aggregated and monomeric FPLC fractions. As to conditions: aggregated form. How it is done:
To separate monomers from multimers of recombinant CS, the preparations were subjected to molecular sieving chromatography on an FPLC apparatus (Pharmacia, Piscataway, N.J.). One hundred micrograms of CS27IVC in a phosphate buffer containing 150 mM NaCl (pH 7.2) was injected into a Superose 12 sizing column (Pharmacia). The protein was eluted in the same buffer using a flow rate of 0.2 ml/min. A high molecular weight fraction ([…]) co-eluted with thyroglobulin. The monomeric form of the protein eluted between amylase (molecular weight=200 kDa) and BSA (molecular weight=66kDa).
The methods described by Lambert, J. M. et al., Biochemistry 17:5406-5416, 1978 were followed. Falciparum-1 at a concentration of 1 mg/ml was incubated with 250 mM Traut's reagent (Pierce Chemical Co., Rockford, Ill.) in 50 mM triethylamine-hydrochloric acid (TEA-HCl) (pH 8.0), 1 mM Mg(Ac)2, and 50 mM KCl for 20 min. on ice. Traut's reagent (0.5 M stock) was prepared immediately before use in a solution containing equal volumes of 1 M TEA-HCl and 1 M TEA-free base. The sulfhydryl-containing falciparum-1 was oxidized in ambient air at 4° C. overnight. The presence of aggregated disulfide-linked falciparum-1 was confirmed both by chromatography in an FPLC sizing column and by Western blotting as described above.
The gold conjugates employed in the foregoing liver section experiments contained no aggregates. […]

Assay [1] in a line: Solid phase binding assay, analogues of sulfatide and cholesterol-3-sulfate. As to conditions: dried into microtiter wells. The protocol:
Solid phase binding assays: Thirty μl of lipids or steroids dissolved in methanol (20-250 μg/ml) were dried into wells of microassay plates (Cat.# 3911—Falcon—Oxnard, Calif.). The plates were then blocked with 1% BSA/PBS pH 7.4 (BSA/PBS) for 30 minutes. Wells were incubated with recombinant protein (or with parasite extract) in PBS/BSA for 1 hour, washed 3 times with BSA/PBS, incubated for 1 hour with monoclonal antibodies 2F2 or 2A10 in BSA/PBS, washed 3 times, and then incubated with (10^5 cpm/well) ^125I protein A (Amersham Corp., Arlington Hts., Ill.). In the case of the P. berghei CS protein, wells were incubated with ^125I labelled mAb 3D11. Wells were washed again and the bound radioactive protein was counted in an LKB gamma-counter (model #1260, Pharmacia, Inc., Gaithersburg, Md.). For inhibition assays, the recombinant proteins were mixed with dilutions of the various polymers in BSA/PBS, the mixture was loaded into the wells of the microtiter plates, and the binding assay performed as above. See also, Roberts, et al. J. Biol. Chem. 260:9405-9411, 1985.
1.4 nmol of sulfatide (open squares), cholesterol-3-sulfate (closed triangles), galactocerebroside I (closed circles), galactocerebroside II (open circles) and cholesterol (open triangles) were evaporated into microtiter wells and then incubated with serial dilutions of Vivax-2. […]

B1: Falciparum-1: Same as Falciparum-2 minus most of Region II+ (P. falciparum residues 43-348) (protein)
chain: AGTNLYNELEMNYYGKQENWYSLKKNSRSLGENDDGNNNNGDNGREGKDEDKRDGNNEDNEKLRKPKHKKLKQPGDGNPDPNANPNVDPNANPNVDPNANPNVDPNANPNANPNANPNANPNANPNANPNANPNANPNANPNANPNANPNANPNANPNANPNANPNVDPNANPNANPNANPNANPNANPNANPNANPNANPNANPNANPNANPNANPNANPNANPNANPNANPNANPNANPNANPNKNNQGNGQGHNMPNDPNRNVDENANANNAVKNNNNEEPSDKHIEQYLKKIKNSISTEWSP
As to B1, the binding activity result in the assay with liver membranes was “inactive”.

B2: Falciparum-2: fragment of P. falciparum CS protein with repeats and Region II+ (residues 43-391) (protein)
chain: AGTNLYNELEMNYYGKQENWYSLKKNSRSLGENDDGNNNNGDNGREGKDEDKRDGNNEDNEKLRKPKHKKLKQPGDGNPDPNANPNVDPNANPNVDPNANPNVDPNANPNANPNANPNANPNANPNANPNANPNANPNANPNANPNANPNANPNANPNANPNANPNVDPNANPNANPNANPNANPNANPNANPNANPNANPNANPNANPNANPNANPNANPNANPNANPNANPNANPNANPNANPNKNNQGNGQGHNMPNDPNRNVDENANANNAVKNNNNEEPSDKHIEQYLKKIKNSISTEWSPCSVTCGNGIQVRIKPGSANKPKDELDYENDIEKKICKMEKCSS
For B2, the “binding to analogues (gangliosides, galactocerebrosides I and II, cholesterol, other steroids)” value in assay [1] is listed as “not”.

These data come from patent US20030119733A1, “Compositions and methods for inhibiting hepatocyte invasion by malarial sporozoites” (New York University, priority 1992, published 2003).
